Target: T1, bovine serum albumin (bovine, UniProt P02769 25-607)
T1 construct: Control protein in the dot immunoblot; also called BSA
Test: dot immunoblot, BSA dotted as control
Source text: The fusion protein containing the full-length royalactin with a histidine tag (SEQ ID NO: 2), which was confirmed to have biological activity in Example 1, was produced in bacteria and purified. This protein was used to generate monoclonal antibodies by injection into mice with subsequent harvest of the spleen for generation of multiple hybridomas. Individual hybridomas were isolated and the antibody produced was screened using dot immunoblot assays. Various concentrations of royalactin were dotted onto the blot with bovine serum albumin (BSA) as a control.

T1 sequence (P02769 25-607 limits assumed): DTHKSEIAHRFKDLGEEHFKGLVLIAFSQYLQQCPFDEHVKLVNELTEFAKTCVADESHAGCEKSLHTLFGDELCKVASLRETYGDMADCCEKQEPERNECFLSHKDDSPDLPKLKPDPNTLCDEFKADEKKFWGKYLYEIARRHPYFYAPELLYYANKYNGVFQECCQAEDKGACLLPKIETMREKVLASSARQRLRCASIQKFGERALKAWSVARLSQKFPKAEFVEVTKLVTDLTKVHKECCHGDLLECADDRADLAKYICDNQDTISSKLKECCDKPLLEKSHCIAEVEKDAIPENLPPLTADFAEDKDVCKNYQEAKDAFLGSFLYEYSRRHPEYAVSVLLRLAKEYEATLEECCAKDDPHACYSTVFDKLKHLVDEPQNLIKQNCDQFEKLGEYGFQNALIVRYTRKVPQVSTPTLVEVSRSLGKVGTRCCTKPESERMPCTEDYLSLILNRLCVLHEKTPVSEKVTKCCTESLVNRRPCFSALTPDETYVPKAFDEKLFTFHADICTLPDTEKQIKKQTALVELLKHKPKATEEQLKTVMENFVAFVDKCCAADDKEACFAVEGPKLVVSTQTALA

B1: monoclonal antibody #19 (4G6C5) (antibody, V domains shown)
VH: VMLVESGGGLVKPGGSLKLSCAASGFTFSRYAMSWNRQTPEKRLEWVATISPGGGYIYYSDSVKGRFTISRDNARNTLYLQMSSLRSEDTAMYYCAGDYVDYWGQGTTLTVSS
VL: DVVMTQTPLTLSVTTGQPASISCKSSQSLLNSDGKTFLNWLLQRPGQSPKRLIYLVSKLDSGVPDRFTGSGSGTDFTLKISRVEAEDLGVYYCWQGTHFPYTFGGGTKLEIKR
notes: Mouse hybridoma monoclonal antibody; also called antibody 4G6C5; hybridoma #19
  binding result: no binding (tested: 2 ng)

From patent publication US20200377560A1 (WYL SCIENCES, published 2020)
